# CN113735969A (INST MILITARY MEDICINE ACADEMY MILITARY SCIENCES PLA, dated 2021)
# Columns and labels:
# SARS-CoV-2 WT S-ECD蛋白 = SARS-CoV-2 WT S-ECD蛋白 (SARS-CoV-2, UniProt P0DTC2 14-1213)
# SARS-CoV-2 Delta株S-ECD蛋白 = SARS-CoV-2 Delta株S-ECD蛋白 (SARS-CoV-2 Delta株 (B.1.617.2))
# SARS-CoV-2 Alpha株S-ECD蛋白 = SARS-CoV-2 Alpha株S-ECD蛋白 (SARS-CoV-2 Alpha株 (B.1.1.7))
# SARS-CoV-2 Beta株S-ECD蛋白 = SARS-CoV-2 Beta株S-ECD蛋白 (SARS-CoV-2 Beta株 (B.1.351))
# SARS-CoV-2 Gamma株S-ECD蛋白 = SARS-CoV-2 Gamma株S-ECD蛋白 (SARS-CoV-2 Gamma株 (P.1))
# SARS-CoV-2 Beta株病毒的S蛋白 = SARS-CoV-2 Beta株病毒的S蛋白 (SARS-CoV-2 Beta株 (B.1.351)); test: cell-based or functional assay
# SARS-CoV-2 Alpha株病毒的S蛋白 = SARS-CoV-2 Alpha株病毒的S蛋白 (SARS-CoV-2 Alpha株 (B.1.1.7)); test: cell-based or functional assay
# SARS-CoV-2 Delta株病毒的S蛋白 = SARS-CoV-2 Delta株病毒的S蛋白 (SARS-CoV-2 Delta株 (B.1.617.2)); test: cell-based or functional assay
# SARS-CoV-2 Gamma株病毒的S蛋白 = SARS-CoV-2 Gamma株病毒的S蛋白 (SARS-CoV-2 Gamma株 (P.1)); test: cell-based or functional assay
binder,measurement,setting,value
"全人源抗SARS-CoV-2单克隆抗体ZWD12 (antibody, V domains shown) VH: EVQLVESGGGLVQPGGTLRLSCVASGFSFSNYWMSWVRQAPGKGLEWVANIKQDGSETHYVDSVKGRFTISRDNAKNSLYLQMNSLRADDTAVYFCVKDRTDWELIRGYFGHWGQGTQITVSS VL: DIVMTQTPSSLSLSPGDRATLSCRASENIINYLAWYQQRPGQSPRLLIYDASNRATGIPARFSGSGSGTDFTLTISSLEPEDFAVYYCQQRIIWPPYTFGQGTKVDIKR",Kd,SARS-CoV-2 WT S-ECD蛋白,0.895 nM
same,koff,SARS-CoV-2 WT S-ECD蛋白,0.000121 s⁻¹
same,kon,SARS-CoV-2 WT S-ECD蛋白,135000 M⁻¹ s⁻¹
same,Kd,SARS-CoV-2 Delta株S-ECD蛋白,1.91 nM
same,koff,SARS-CoV-2 Delta株S-ECD蛋白,0.000133 s⁻¹
same,kon,SARS-CoV-2 Delta株S-ECD蛋白,69600 M⁻¹ s⁻¹
same,Kd,SARS-CoV-2 Alpha株S-ECD蛋白,0.826 nM
same,koff,SARS-CoV-2 Alpha株S-ECD蛋白,0.000111 s⁻¹
same,kon,SARS-CoV-2 Alpha株S-ECD蛋白,134000 M⁻¹ s⁻¹
same,Kd,SARS-CoV-2 Beta株S-ECD蛋白,0.991 nM
same,koff,SARS-CoV-2 Beta株S-ECD蛋白,0.000102 s⁻¹
same,kon,SARS-CoV-2 Beta株S-ECD蛋白,103000 M⁻¹ s⁻¹
same,Kd,SARS-CoV-2 Gamma株S-ECD蛋白,1.42 nM
same,koff,SARS-CoV-2 Gamma株S-ECD蛋白,0.000146 s⁻¹
same,kon,SARS-CoV-2 Gamma株S-ECD蛋白,102000 M⁻¹ s⁻¹
same,"假病毒中和 EC50 (luciferase, HEK293T cells)",SARS-CoV-2 Beta株病毒的S蛋白,3.56 ng/mL
same,"真病毒中和 EC50 (Vero E6 cells, crystal violet)",SARS-CoV-2 Beta株病毒的S蛋白,69 ng/mL
same,"假病毒中和 EC50 (luciferase, HEK293T cells)",SARS-CoV-2 Alpha株病毒的S蛋白,4.11 ng/mL
same,"假病毒中和 EC50 (luciferase, HEK293T cells)",SARS-CoV-2 Delta株病毒的S蛋白,7.29 ng/mL
same,"真病毒中和 EC50 (Vero E6 cells, crystal violet)",SARS-CoV-2 Delta株病毒的S蛋白,79 ng/mL
same,"假病毒中和 EC50 (luciferase, HEK293T cells)",SARS-CoV-2 Gamma株病毒的S蛋白,3.83 ng/mL
